What all share (assay): two-hybrid library CCNG1;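 note: natural log of median RNA to DNA barcode read ratio; higher means stronger binding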
One assay deals with T1, 4H967-bN.
T1 chain: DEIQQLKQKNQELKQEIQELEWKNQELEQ

A further assay has as its target T2, 4H918-bN.
T2 chain: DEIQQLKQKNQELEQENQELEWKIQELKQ

For the next assay, the target named is T3, 4H797-bN.
T3 chain: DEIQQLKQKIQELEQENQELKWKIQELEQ

The target in another assay is T4, P12bH1.
T4 chain: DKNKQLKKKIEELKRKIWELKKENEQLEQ

The target of a further assay is T5, 4H855-bN.
T5 chain: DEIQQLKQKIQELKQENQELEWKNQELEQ

For the next assay, the target named is T6, 4H908-bN.
T6 chain: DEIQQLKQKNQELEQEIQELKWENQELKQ

In a further assay the target is T7, 4H953-bN.
T7 chain: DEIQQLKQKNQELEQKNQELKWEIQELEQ

In another assay the target is T8, 4H968-bN.
T8 chain: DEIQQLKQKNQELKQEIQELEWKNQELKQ

A further assay deals with T9, 4H883-bN.
T9 chain: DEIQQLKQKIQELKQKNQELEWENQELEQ

A further assay has as its target T10, P6bH1.
T10 chain: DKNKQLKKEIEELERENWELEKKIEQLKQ

With DEIQQLKQKIQELEQENQELKWKIQELEQ [4H797-bN], the interaction score with 4H967-bN was -0.535; in the assay with 4H918-bN it was 1.02; with 4H797-bN it was 0.569; with P12bH1 it was -0.66; in the assay with 4H855-bN it was 0.668; with 4H908-bN, -0.753. The interaction score was -0.455 with 4H953-bN, -1.06 in the assay with 4H968-bN, -1.53 with 4H883-bN and 0.0343 in the assay with P6bH1.

The record behind these values is publication PMC10397247.
